Measurements as given in publication PMC7272391.
Several values for one entry are separate records, joined by “and”; a condition that tells them apart may be missing. Equal values may be shown once.

Legend:
[1] = target: human Fc-gamma receptor I (human) (UniProt P12314); assay: SPR; BIAcore chip with immobilised anti-His antibody capturing His-tagged human FcγRI; antibody diluted >5000-fold in assay buffer and injected at 0.125-4.0 μg/mL; 1:1 Langmuir binding model
[2] = target: human Fc-gamma receptor IIa (human) (UniProt P12318); assay: SPR; BIAcore chip with immobilised anti-His antibody capturing His-tagged human FcγRIIa, IIb, IIIa(F), IIIa(V), IIIbNA1 or IIIbNA2; antibody exchanged into assay buffer and injected at 0.125-4.0 mg/mL; steady state affinity model
[3] = target: human Fc-gamma receptor IIIa(F) (human) (UniProt P08637); assay: as above
[4] = target: human Fc-gamma receptor IIb (human) (UniProt P31994); assay: as above
[5] = target: human neonatal Fc receptor (human) (UniProt P55899); assay: SPR; BIAcore chip with immobilised anti-β2-microglobulin antibody capturing human FcRn; antibody diluted >5000-fold in assay buffer and injected at 0.15625-2.5 μg/mL; bivalent analyte model

Chain of UniProt P12318 (P12318 34-317): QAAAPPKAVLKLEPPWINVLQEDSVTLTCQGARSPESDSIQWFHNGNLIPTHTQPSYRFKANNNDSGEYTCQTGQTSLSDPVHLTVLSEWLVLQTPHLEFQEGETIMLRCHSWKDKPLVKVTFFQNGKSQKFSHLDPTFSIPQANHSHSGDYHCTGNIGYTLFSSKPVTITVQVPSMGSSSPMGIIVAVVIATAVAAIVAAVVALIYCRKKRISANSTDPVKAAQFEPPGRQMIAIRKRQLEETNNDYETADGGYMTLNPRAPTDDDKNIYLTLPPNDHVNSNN
Chain of UniProt P31994 (P31994 43-310): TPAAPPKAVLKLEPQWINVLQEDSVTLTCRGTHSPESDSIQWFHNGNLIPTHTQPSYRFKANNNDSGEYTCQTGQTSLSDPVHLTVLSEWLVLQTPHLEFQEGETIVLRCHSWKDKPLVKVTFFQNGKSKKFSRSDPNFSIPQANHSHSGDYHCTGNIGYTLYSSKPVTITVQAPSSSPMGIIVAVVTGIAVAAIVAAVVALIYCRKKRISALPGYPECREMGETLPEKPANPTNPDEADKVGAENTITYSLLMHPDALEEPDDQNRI
Chain of UniProt P12314 (P12314 16-374): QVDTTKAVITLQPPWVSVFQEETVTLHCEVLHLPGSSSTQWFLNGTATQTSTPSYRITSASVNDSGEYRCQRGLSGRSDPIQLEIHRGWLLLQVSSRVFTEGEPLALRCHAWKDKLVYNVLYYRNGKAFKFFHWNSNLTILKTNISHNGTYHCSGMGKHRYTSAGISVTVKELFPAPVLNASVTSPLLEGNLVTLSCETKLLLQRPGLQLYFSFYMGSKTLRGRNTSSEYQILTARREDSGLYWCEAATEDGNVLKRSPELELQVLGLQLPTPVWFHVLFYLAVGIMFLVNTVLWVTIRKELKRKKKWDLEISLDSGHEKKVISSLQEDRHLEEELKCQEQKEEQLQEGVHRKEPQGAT
Chain of UniProt P08637 (P08637 17-254): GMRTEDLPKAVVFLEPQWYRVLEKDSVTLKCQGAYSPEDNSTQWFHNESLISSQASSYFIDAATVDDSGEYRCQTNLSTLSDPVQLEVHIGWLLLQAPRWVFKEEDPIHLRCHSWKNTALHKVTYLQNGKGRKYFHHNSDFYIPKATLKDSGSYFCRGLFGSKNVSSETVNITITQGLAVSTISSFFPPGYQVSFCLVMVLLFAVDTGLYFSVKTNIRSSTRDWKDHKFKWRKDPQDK

Kd [1]: 0.000382 µM and 0.000436 µM
Kd [2]: 7.65 µM and 8.47 µM
Kd [3]: 1 µM
Kd [4]: 13.8 µM and 15.7 µM
Kd [5]: 0.0664 µM and 0.0759 µM
Substance: FKB327 (antibody)
